Experimental data reported in US20240052034A1 (PANDION OPERATIONS, published 2024).

Legend:
Assay in all cases: ELISA: plate-coated PD-1, detection by anti-kappa-HRP
mouse PD-1 = target: T1, mouse PD-1 (mouse, UniProt Q02242 25-167, limits assumed)
T1 sequence (looked up): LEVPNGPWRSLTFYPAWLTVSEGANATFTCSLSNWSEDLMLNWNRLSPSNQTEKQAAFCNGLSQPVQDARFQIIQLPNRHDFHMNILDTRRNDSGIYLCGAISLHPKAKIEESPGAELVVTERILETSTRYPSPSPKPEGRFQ

human PD-1 = target: T2, human PD-1 (human, UniProt Q15116 25-167, limits assumed)
T2 construct: also called huPD-1

cynomolgus PD-1 = target: T3, cynomolgus PD-1 (cynomolgus, UniProt B0LAJ3 25-170)
T3 construct: also called cyno PD-1
T3 sequence (B0LAJ3 entry or part of it limits assumed): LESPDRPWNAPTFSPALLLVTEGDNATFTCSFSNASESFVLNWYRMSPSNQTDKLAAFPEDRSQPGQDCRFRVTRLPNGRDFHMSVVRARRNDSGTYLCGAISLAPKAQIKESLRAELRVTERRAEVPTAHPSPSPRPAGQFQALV

T2 sequence (Q15116 25-167 limits assumed): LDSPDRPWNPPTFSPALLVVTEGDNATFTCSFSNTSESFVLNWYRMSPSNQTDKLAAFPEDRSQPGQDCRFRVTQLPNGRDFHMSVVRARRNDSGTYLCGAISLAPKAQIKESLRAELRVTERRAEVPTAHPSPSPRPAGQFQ

binding result (mouse PD-1): binds | binding result (human PD-1): binds | binding result (cynomolgus PD-1): binds
B1: PD1AB69 (bispecific antibody, human IgG1, kappa)
heavy: EVQLLESGGGLVQPGGSLRLSCAASGFTFSSYDMSWVRQAPGKGLEWVSGITISGGSTYYADSVKGRFTISRDNSKNTLYLQMNSLRAEDTAVYYCARGRGGSGWLDYWGQGTTVTVSSASTKGPSVFPLAPSSKSTSGGTAALGCLVKDYFPEPVTVSWNSGALTSGVHTFPAVLQSSGLYSLSSVVTVPSSSLGTQTYICNVNHKPSNTKVDKKVEPKSCDKTHTCPPCPAPEAAGAPSVFLFPPKPKDTLMISRTPEVTCVVVDVSHEDPEVKFNWYVDGVEVHNAKTKPREEQYNSTYRVVSVLTVLHQDWLNGKEYKCKVSNKALPAPIEKTISKAKGQPREPQVYTLPPSREEMTKNQVSLTCLVKGFYPSDIAVEWESNGQPENNYKTTPPVLDSDGSFFLYSKLTVDKSRWQQGNVFSCSVMHEALHNHYTQKSLSLSPGGGGSEGGGSEGGGSEDIQMTQSPSSLSASVGDRVTITCQASRDILNYLAWYQQKPGKAPKLLIYAASSLQSGVPSRFSGSGSGTDFTLTISSLQPEDFATYYCQQSYSTPPTFGCGTKVDIKGGGGSGGGGSGGGGSGGGGSEVQLVQSGAEVKKPGASVKVSCKASGYSFTTYYMHWVRQAPGQCLEWMGIINPSGGSTSYAQKFQGRVTMTRDTSTSTVYMELSSLRSEDTAVYYCASGWVYWGQGTLVTVSS
light: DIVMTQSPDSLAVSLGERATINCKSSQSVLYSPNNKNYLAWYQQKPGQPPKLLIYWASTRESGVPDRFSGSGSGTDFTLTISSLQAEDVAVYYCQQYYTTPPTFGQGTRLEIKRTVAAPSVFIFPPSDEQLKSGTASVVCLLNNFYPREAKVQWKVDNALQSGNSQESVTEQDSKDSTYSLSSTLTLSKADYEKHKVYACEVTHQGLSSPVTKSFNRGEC
